T1: mouse Ang2 (Accession # NP-031452) (R&D Systems) (mouse, UniProt O35608 19-496)
T1 construct: Bought protein coated on the ELISA plate; also called mAng2
T1 sequence (looked up): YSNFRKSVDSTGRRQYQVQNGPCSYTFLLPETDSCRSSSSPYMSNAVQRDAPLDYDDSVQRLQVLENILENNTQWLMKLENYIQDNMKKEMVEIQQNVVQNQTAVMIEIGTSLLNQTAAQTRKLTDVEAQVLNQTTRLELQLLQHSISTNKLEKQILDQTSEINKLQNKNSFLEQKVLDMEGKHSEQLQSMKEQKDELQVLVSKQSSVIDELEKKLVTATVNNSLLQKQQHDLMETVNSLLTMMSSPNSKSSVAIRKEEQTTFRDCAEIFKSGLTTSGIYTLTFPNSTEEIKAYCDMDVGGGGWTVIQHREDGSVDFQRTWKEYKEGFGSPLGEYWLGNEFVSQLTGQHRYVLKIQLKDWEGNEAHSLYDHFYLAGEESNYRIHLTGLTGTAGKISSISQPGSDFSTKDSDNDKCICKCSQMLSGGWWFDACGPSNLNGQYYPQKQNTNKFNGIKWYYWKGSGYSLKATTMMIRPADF

T2: Ang2 mutant K468 (full-length Ang2) (human, UniProt O15123 19-496, limits assumed)
T2 sequence: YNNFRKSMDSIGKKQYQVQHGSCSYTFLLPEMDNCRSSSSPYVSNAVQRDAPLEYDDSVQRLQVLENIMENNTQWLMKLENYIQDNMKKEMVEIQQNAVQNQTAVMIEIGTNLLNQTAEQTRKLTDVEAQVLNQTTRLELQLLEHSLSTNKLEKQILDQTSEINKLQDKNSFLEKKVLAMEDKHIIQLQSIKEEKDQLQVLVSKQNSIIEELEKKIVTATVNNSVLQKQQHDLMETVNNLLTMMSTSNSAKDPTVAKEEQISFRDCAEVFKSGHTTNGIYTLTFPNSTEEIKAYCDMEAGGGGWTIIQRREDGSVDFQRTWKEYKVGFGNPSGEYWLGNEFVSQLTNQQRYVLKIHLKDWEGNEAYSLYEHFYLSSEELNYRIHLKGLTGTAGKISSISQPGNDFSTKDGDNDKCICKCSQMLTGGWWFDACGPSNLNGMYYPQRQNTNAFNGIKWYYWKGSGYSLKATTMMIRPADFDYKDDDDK

T3: Ang2 mutant F469 (full-length Ang2) (human, UniProt O15123 19-496, limits assumed)
T3 sequence: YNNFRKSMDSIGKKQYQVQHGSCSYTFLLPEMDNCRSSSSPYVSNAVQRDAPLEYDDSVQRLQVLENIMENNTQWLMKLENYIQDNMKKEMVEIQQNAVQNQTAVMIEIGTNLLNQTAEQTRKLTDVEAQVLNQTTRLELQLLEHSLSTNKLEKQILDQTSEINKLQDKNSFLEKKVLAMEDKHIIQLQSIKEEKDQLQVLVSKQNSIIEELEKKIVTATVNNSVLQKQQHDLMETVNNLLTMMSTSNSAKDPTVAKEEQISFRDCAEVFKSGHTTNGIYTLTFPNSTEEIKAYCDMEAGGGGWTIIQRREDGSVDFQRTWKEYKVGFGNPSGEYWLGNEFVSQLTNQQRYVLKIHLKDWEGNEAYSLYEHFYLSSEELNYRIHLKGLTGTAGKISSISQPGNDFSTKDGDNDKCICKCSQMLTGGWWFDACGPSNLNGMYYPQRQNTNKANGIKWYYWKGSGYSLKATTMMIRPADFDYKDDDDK


How the values were obtained:
[1] = molecular target: T1, mouse Ang2 (Accession # NP-031452) (R&D …); assay: ELISA on coated mouse Ang2; 50% binding concentration, which the filing calls Kd
Method: An ELISA was conducted to measure the binding affinity of the antibodies prepared in Example 2 to mouse Ang2(mAng2). MaxiSorp™ flat-bottom plate (Nunc) of 96-well was coated with 5-20 μg/ml of mouse Ang2 (Mouse Ang2; Accession # NP_{—}031452) (R&D Systems). Thereafter, the plate was washed five times with 0.05% (v/v) Tween-20-containing PBS (PBST) and then blocked with 1% (v/v) BSA (bovine serum albumin; Sigma)-containing PBS at a room temperature for 2 hour. Each of the anti-Ang2 antibodies was added to each well of the plate at various concentrations, and the plate was allowed to react at a room temperature for 2 hours.
Thereafter, the plate was washed five times with PBST. Then, a HRP-conjugated anti-mouse IgG antibody (Santacruz) diluted in 1% (v/v) BSA-containing PBS at a ratio of 1:1,000 (v/v) was added in an amount of 50 μl to each well to react at a room temperature for 1 hour and then, the plate was washed five times with PBST. Lastly, 100 μl of TMB substrate (Cell Signaling) was added to each well of the plate to induce color development for 3 min. and then, the reaction was ceased by the addition of 100 μl of Stop solution (Cell Signaling) and OD450 values were measured on a plate reader (Molecular Devices).
From the obtained results, 50% binding concentration (Kd) of the anti-Ang2 antibody to Ang2 protein is obtained, thereby measuring the binding intensity of each of the anti-Ang2 antibodies to Ang2.

[2] = molecular target: T2, Ang2 mutant K468 (full-length Ang2); assay: ELISA; antibody coated, FLAG-tagged full-length Ang2 mutant, anti-FLAG-HRP detection
Method: (§1) A 96-well MaxiSorp™ flat-bottom plate (Nunc) was coated with 50 μl of each anti-Ang2 antibody (400 nM). After that, the plate was washed five times with 0.05% (v/v) Tween-20-containing PBS (PBST) and then blocked with 1% (v/v) BSA-containing PBS at a room temperature for 2 hours. S417, P419, N421, I434, D448, A449, P452, Y460, N467, K468, or F469 residue of Ang2 (SEQ ID NO: 27) was mutated (substituted) with alanine and tagged with FLAG (N-[…]-C; 1012 Da) and then 250 ng of them was each added to each well to the plate, which was allowed to react at a room temperature for 2 hours.
(§2) Thereafter, the plate was washed five times with 0.05% (v/v) Tween-20-containing PBS and then, an HRP-conjugated anti-FLAG antibody (SIGMA) diluted in 1% (v/v) BSA-containing PBS at 1:5,000 ratio (v/v) was added in the amount of 50 μl to each well to react at a room temperature for 1 hour, followed by washing five times with 0.1% (v/v) Tween-20-containing PBS.
(§3) Finally, 100 μl of TMB substrate (cell signal) was added to each well of the plate to induce color development for 3 minutes and then, the reaction was ceased by the addition of 100 μl of stop solution (Cell signaling) and OD450 values were measured on a plate reader (Molecular Devices). By comparing binding intensity to mutated Ang2 to binding intensity to non-mutated (native) Ang2, each epitope for the Ang2 antibodies was identified.

[3] = molecular target: T3, Ang2 mutant F469 (full-length Ang2); assay: as above
Method: as §1, §2, §3

Kd [1] | Binding (%) (mutant Ang2 / native Ang2) [2] | Binding (%) (mutant Ang2 / native Ang2) [3] | Binder
130 nM |  |  | SAIT-ANG2-AB-m3E2 (antibody, V domains shown, also called hybridoma KCLRF-BP-00305) VH: EVQLQQSGAELVKPGASVKLSCTASGFNIKDPYIHWVKQRPEQGLEWIGRIDPANGNTKYDPKFQGKATITADTSSNTAYLQLSSLTSEDTAVYYCVRRWDGGGFDYWGQGTSVTVSS VL: DIQMTQTTSSLSASLGDRVTISCRASQDISNYLNWYQQKPDGTVKLLIYYTSRLHSGVPSRFSGSGSGTDYSLTITNLEQEDIATYFCQQGNTLPWTFGGGTKLEIK
141 nM | 20.5% | 41.9% | SAIT-ANG2-AB-m8D3 (antibody, V domains shown, also called hybridoma KCLRF-BP-00308) VH: EVQLQQSGPELVKPGDSVKMSCKASGYTFTDYYMKWVRQSHGKSLQWVGEINPKNGDTFYNQIFKGKATLTVDKSSSTAYMQLTSLTSEDSAVYYCTRENDYDVGFFDYWGQGTSVTVSS VL: TIVMTQTPKFLLVSAGDRITITCKASQSVSNDVAWYQQKPGQSPKLLIYYASNRYPGVPDRFTGSGYGTDFTFTISTVQAEDLAVYFCQQDYTSPWTFGGGTELEIK
